{"source": "paper PMC8343073", "key": {"[1]": {"system": "DdbA (Chlamydia trachomatis L2)", "test": "BLI", "details": "BLI (Octet QKe, Ni-NTA sensors, His-protein immobilized): 0.1 M phosphate, 0.15 M NaCl, pH 7.2; nucleic acid 720, 240, 80 nM; temperature not stated"}, "[2]": {"system": "HctA (Chlamydia trachomatis L2)", "test": "BLI", "details": "BLI (Octet QKe, Ni-NTA sensors, His-protein immobilized): 0.1 M phosphate, 0.15 M NaCl, pH 7.2; nucleic acid 720, 240, 80 nM; temperature not stated"}}, "note": "pKd: −log10 of the molar value."}
{"substance": "dsDNA oligo 60% GC", "values": [{"measurement": "pKd", "setting": "[1]", "result": 8.14}, {"measurement": "pKd", "setting": "[2]", "result": 8.64}]}
